Assay results from the RNAGym collection of RNA variant scans (doi:10.7554/elife.80360).

B1: HDV Ribozyme (parent)
chain: GGCCGGCAUGGUCCCAGCCUCCUCGCUGGCGCCGGCUGGGCAACAUUCCGAGGGGACCGUCCCCUCGGUAAUGGCGAAUGGGACCCA

Variants of: B1
Experiment: self-cleavage, relative activity (ratio to wild type); higher = more cleavage; co-transcriptional

Variant | self-cleavage
C32G G55A | 0.0841
G31C A56C | 0.325
G31C A56U | 0.305
G31C U47G | 0.383
G31C U47C | 0.499
G31U C48A | 0.401
C32G G59U | 0.0519
C32G G59A | 0.0489
C32A C62A | 0.151
G31C C44U | 0.106
C32G G50C | 0.262
C32G G50A | 0.157
G31C G59C | 0.378
G31C G59A | 0.483
G31C G67C | 0.272
G31C G67U | 0.402
G31C C86U | 0.295
G31C C86A | 0.312
C32G C84G | 0.0594
G31C G73U | 0.0779
G31C G73A | 0.0346
C32A A87C | 0.129
C32A U72C | 0.133
C32A U72G | 0.178

Variant | self-cleavage
C32A U72A | 0.156
C32A G82U | 0.104
C32A C48A | 0.116
G31C G82A | 0.0563
C32A G80C | 0.161
C32A G80A | 0.183
C32A G80U | 0.0472
C32A A83U | 0
G31C G81U | 0.086
G31U C57G | 0.439
C32A A45G | 0.198
C32A A45U | 0.151
C32G G53U | 0.196
C32G G53C | 0.213
G31C G55U | 0.338
G31C G55A | 0.546
G31C U79G | 0
C32A G74A | 0.148
C32A A78C | 0.0665
C32A A78G | 0.113
G31C U46C | 0.178
C32G C86A | 0.18
C32G C86G | 0.119
G31U G40C | 0.0519

Variant | self-cleavage
C32G C62U | 0.117
C32G C62G | 0.277
C32G C62A | 0.148
C32A U60G | 0.138
G31U A71U | 0.181
G31A U60C | 0.32
G31U A87G | 0.323
G31U A87C | 0.358
C32G G54A | 0.0898
C32G G54C | 0.086
G31U U65G | 0.383
G31U U65A | 0.318
G31C G50U | 0.208
G31C G50A | 0.343
C32G G73C | 0.12
C32A A71G | 0.128
G31U G34U | 0.0791
G31U U72A | 0.141
G31U U72G | 0.128
C32A G50U | 0.178
G31U U47A | 0.406
G31U A56C | 0.389
G31U C41U | 0.151
G31U C41G | 0.0437

Variant | self-cleavage
G31C G40C | 0.0346
G31C G40U | 0.229
C32G G68U | 0.089
C32G G68A | 0.185
C32G G74A | 0.126
C32G G74U | 0.125
C32G G74C | 0.166
C32A C85A | 0.341
C32A C85G | 0.252
C32G A87C | 0.0545
C32G A87U | 0.135
C32G A87G | 0.0665
G31C C32U | 0.0723
G31C C32G | 0.0396
G31C C32A | 0.0875
G31U U69G | 0.386
G31U U69C | 0.396
G31U G73A | 0.0627
G31U G73U | 0.171
G31U G73C | 0
C32G C41U | 0.119
G31U G76A | 0.369
G31C A42U | 0.0707
G31C A42C | 0.128

Variant | self-cleavage
C32G G39A | 0.157
G31C G68U | 0.233
G31C G68C | 0.138
C32A G59U | 0.095
G31C C41U | 0.138
G31C C41A | 0.305
C32A G53C | 0.0923
C32A G53U | 0.214
G31U U46C | 0.306
C32A C86A | 0.356
G31C A78U | 0.148
G31A U72C | 0.256
G31A U72G | 0.145
G31U G82U | 0.0378
G31U G82A | 0.185
G31U G81C | 0.208
G31U G81A | 0.162
C32A U47A | 0.322
C32A U47G | 0.246
C32A A77C | 0.219
C32G G40C | 0.0755
C32G G40A | 0.0831
G31U G52A | 0.431
C32G A51U | 0.128

Variant | self-cleavage
G31C C84A | 0.443
G31U | 0.47
G31C | 0.363
C32G C61A | 0.121
C32G C61U | 0.026
C32G C61G | 0.0604
C32G C66G | 0.0583
C32G C66A | 0.113
G31U A70U | 0.365
G31U G74A | 0.151
G31C C48U | 0.475
G31U A43U | 0.149
G31U A43C | 0.0504
G31U C32G | 0.0978
G31U C32U | 0.115
C32G C33G | 0.0906
C32G C33A | 0.0615
G31C U60G | 0.222
G31U G55U | 0.324
G31U G55A | 0.506
G31U U37C | 0.415
G31U U37A | 0.172
C32A U46A | 0.185
C32A C57A | 0.295

Variant | self-cleavage
C32A C57U | 0.318
C32A C57G | 0.389
C32A G35A | 0.122
G31C U65A | 0.394
G31C U65G | 0.48
G31U A51U | 0.525
G31U A51G | 0.369
G31U A83G | 0.16
G31U A83C | 0.0898
G31U A83U | 0.0627
C32G C57G | 0.225
C32A G81A | 0.0779
C32A G81C | 0.0475
C32A G81U | 0.136
G31C C62U | 0.386
G31U G67C | 0.245
C32G C48U | 0.0449
C32G C63A | 0
C32G A77C | 0.0536
C32G A77G | 0.0475
C32G A77U | 0.123
G31C C85U | 0.299
G31C C85A | 0.317
